A value given as a limit tells only on which side of the number the result lay.

The series can be described thus: soluble fraction after stress (log2 fold change); higher = more stays soluble; pooled small domains, quantitative proteomics. Particulars: stress: pH 4. Summed up:
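Custom libraries of small protein domains were pooled and exposed to pH 4. High-throughput quantitative proteomics then measured the log2 fold change in the amount of each domain still soluble, with higher values meaning more stayed soluble. This soluble-fraction fold change stands for aggregation propensity.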
For the sequence “HMKETERKILQAVLGLPLKYRDVIHLFYYEEMSVKEIAEVLHRQESTVTSQLTRARGILKKNL”, the “soluble fraction (log2)” value is -0.377.
Next, “HMKETLSDTVSRKLEDMITTQMKAGNRLPTEMVLAEMYSVGRSTIRESLKALSSKGLIVRKKDGTFVSDRV”: 0.22.
Regarding “HMKEVKAPMPGMVLRVEVAPGQEVQEGDPLLVLEAMKMENNLKSPASGTIKSVHVEAGKAVEKGAVLVVF”, the “soluble fraction (log2)” value was -0.257.
As for “HMKEVKRDQVIEAARKLFHQFGFKKVSMDEIAKEAGVTKKTIYMYFESKEELLKYFIQEEISN”, the “soluble fraction (log2)” value was -0.44.
Next, “HMKEVVKVTITPSEKLKSQYPDALVSIDGKFYDLGILNNPVEFYMDKDHKISIIWSTAELVESFRI”: -0.248; “HMKEYRKEGHLYFVTEDRNNEIYLWDFTDKPKHEFKEIITSVELQKVAKEGAMLQYKNGKYELYS”: -0.0848.
As for “HMKFDVNAAIRAVLNVTVDKGATLERIMKETNLTSDQLVLPIALLMKTERLHFKRSGTHEVYVSVGKAPDK”, the figure is -0.0868; as for “HMKFGEQIKERRQELDLTQAEVAEKLFVTRQAVSNWEHNKTYPDLNMLVKISNVYQISLDSLLR”, -0.0339; as for “HMKFHENLIALRRREGWSQEELGNRIGVTRQTVSKWELGLTTPELEKLVQLADVFGMTTDQLVGR”, -0.111.
Regarding “HMKFNLWLSEKLKKLGLTQRKLAEQAGVSPATVSRWLSGEFEPDLTNLRKINQVLGVPERELFLQLGL”, the “soluble fraction (log2)” value is -0.0282.
For the sequence “HMKFPNVGENLRLLRQEMGISLDKASKMTGVSKAMLGQIERGESSPTVSTLWKISSGFKINFTTLLSE”, the “soluble fraction (log2)” value was 0.224.
As to “HMKFPPASDIRRMRKAIDVTQTELAKQSGVSQSTIAKIERGRISASYDTVVKLFETLDEMAK”, the “soluble fraction (log2)” value is -0.00924.
In the case of “HMKFTPPTLEQIKNEMLLKTDEYNADIQSDRFFTYYDSNGWMVGKNKMKKFLVSLVAVFAATSA”, the “soluble fraction (log2)” value is -0.374.
As for “HMKFYIHEIIGFNAVDKVAGIVGKVININEDSPQKKLVVNYNGKEVFIPLVDEIVRKIDKQKNEVLITMP”, the “soluble fraction (log2)” value was -0.174.
Consider “HMKGEIEELLYEEVTKDNNTTFLRIYIKLNDEYNTLLNLGIIGIKTEEKVNELVNLGYKKVL”, for which the “soluble fraction (log2)” value is -2.54.
For “HMKGISRVTMELIIDALKKETEPRTVQWIAEKTGLATQTTYRYLQYMVSEQTVEALNVYGKVVSLKAK”, the “soluble fraction (log2)” value is 0.153.
As for “HMKGKWKPIILWQLSKAPQSLSGLRHSIAGISQKMLIQHLNELIHFGFVVRTTFEGYPLKVEYDLTDRGR”, the figure is -0.251.
In the case of “HMKGLDAAVVDLFKSKGASIVFAGNRLSLSGEVADQATKDELLAKAKAILASLGASVSLDDKLMVKGAKAS”, the “soluble fraction (log2)” value turned out to be 0.175.
For “HMKGMIKVASMSLGADLGLYSRHLKYLGIVHRVVEESGGQSVYIQKLNDLHTAKESLELYLKNELKI”, the “soluble fraction (log2)” value was -0.476.
With “HMKGQNRSEITAGARVKVVQKQDQRTGALTEGIVRDILTRSPHHPHGIKVRLESGIVGRVKDVL”, the “soluble fraction (log2)” value was -0.287.
Next, “HMKGSIMIETILKELKKNNKGFNFLLEKFDISEDELMKIINDLIHDKKVFLNSNNKYEIVSD”: -0.958; “HMKGTVLAPGIILNADDQRFTYLQEDVASVAKDGAAIVLKQGDEVDFIADGQTAKQIYLTKT”: 0.0738; “HMKGVPGIGDYVKLSGGSTVGKVLSISGKKAEVAFGLLRTTTELSKLEKVRKPKELLQSGVSS”: not below 0.43.
Turning to “HMKGVTVDGDNITVDGEKQTLISVNKNLDGDVVSYTYRTADGKLRTSRNVEVAQEINKQQLLKSIDAQ”, the “soluble fraction (log2)” value was 0.0219.
In the case of “HMKGWPDREQAEKIWQQGIDYAIEHHTMSPQIVKEYIFHTQGIARSAALIAARLPDMDTEKAYVLGLLHD”, the “soluble fraction (log2)” value was 0.0199.
Take “HMKIAEALNLRGDADSYERQEAIWLLEHIVGMSALELKYRGEQDLTEDQLQQYRSGLQRLEQGEPLAYVIG”: the “soluble fraction (log2)” value was -0.73.
As to “HMKIDLKQIEGVLDELAKVKGSLITILQKTQETYGYLPKEAIIYISERTGIAESEIMGVATFYTQFRL”, the “soluble fraction (log2)” value is -0.779.
On to “HMKIDLTPQEEKIYSVLETELTLDEIIMKTSIKAGEALAILMDLELKKLVASVAGGKYRRKA”, for which the “soluble fraction (log2)” value stood at 0.157.
